How the values were obtained:
HLA-A*68:02 = assay: IEDB peptide-MHC binding, purified MHC/direct/fluorescence; filed as Kd, often an IC50 or EC50 that approximates it; ≥ and ≤ were set here for values at or beyond the usual limits of such assays
HLA-B*51:01 = assay: as above
HLA-B*39:01 = assay: as above; conditions: source organism: Cryptosporidium parvum Iowa II
HLA-B*46:01 = assay: as above
HLA-A*69:01 = assay: as above
HLA-A*02:19 = assay: as above
HLA-B*18:01 = assay: as above
HLA-A*26:01 = assay: as above
HLA-B*57:01 = assay: as above
HLA-B*27:03 = assay: as above
HLA-A*02:12 = assay: as above
HLA-B*44:02 = assay: as above
HLA-A*11:01 [1] = assay: as above
HLA-A*02:01 [2] = assay: as above
HLA-B*08:01 [3] = assay: as above
HLA-B*07:02 = assay: as above
HLA-A*31:01 = assay: as above
HLA-A*03:01 = assay: as above
HLA-B*58:01 = assay: as above
HLA-B*35:01 = assay: as above
HLA-B*27:05 = assay: as above
HLA-A*24:03 = assay: as above
HLA-A*01:01 = assay: as above
HLA-B*15:01 = assay: as above
HLA-B*40:01 = assay: as above
HLA-A*02:01 [4] = assay: IEDB peptide-MHC binding, purified MHC/competitive/fluorescence; ≥ and ≤ were set here for values at or beyond the usual limits of such assays; conditions: source organism: Zaire ebolavirus
HLA-B*08:01 [5] = assay: as above; conditions: source organism: Zaire ebolavirus
HLA-C*15:02 = assay: IEDB peptide-MHC binding, purified MHC/direct/fluorescence; filed as Kd, often an IC50 or EC50 that approximates it; ≥ and ≤ were set here for values at or beyond the usual limits of such assays; conditions: source organism: Mycobacterium tuberculosis str. Haarlem
HLA-C*14:02 = assay: as above; conditions: source organism: Mycobacterium tuberculosis str. Haarlem
HLA-C*03:03 = assay: as above
HLA-A*02:16 = assay: as above; conditions: source organism: Vibrio cholerae O139
HLA-A*29:02 = assay: as above; conditions: source organism: Vibrio cholerae O139
HLA-A*02:03 = assay: as above; conditions: source organism: Vibrio cholerae O139
HLA-A*23:01 = assay: as above
HLA-B*15:17 = assay: as above; conditions: source organism: Vibrio cholerae O139
HLA-A*02:11 = assay: as above; conditions: source organism: Vibrio cholerae O139
HLA-A*24:02 = assay: as above; conditions: source organism: Amur virus
HLA-A*11:01 [6] = assay: IEDB peptide-MHC binding, purified MHC/competitive/fluorescence; ≥ and ≤ were set here for values at or beyond the usual limits of such assays; conditions: source organism: Zaire ebolavirus
[7] = source organism: Cryptosporidium parvum Iowa II
[8] = source organism: Escherichia coli O157:H7
[9] = source organism: Salmonella enterica subsp. enterica serovar Typhimurium
[10] = source organism: Vibrio cholerae O139
[11] = source organism: Vibrio cholerae
[12] = source organism: Giardia lamblia ATCC 50803
[13] = source organism: Yersinia pestis

## YLAKLFLDH
HLA-A*68:02; [7]
  Kd: ≥ 20 µM
HLA-B*51:01; [7]
  Kd: ≥ 20 µM
HLA-B*39:01
  Kd: ≥ 20 µM
HLA-B*46:01; [7]
  Kd: ≥ 20 µM
HLA-A*69:01; [7]
  Kd: ≥ 20 µM
HLA-A*02:19; [7]
  Kd: ≥ 20 µM
HLA-B*18:01; [7]
  Kd: ≥ 20 µM
HLA-A*26:01; [7]
  Kd: ≥ 20 µM
HLA-B*57:01; [7]
  Kd: ≥ 20 µM
HLA-B*27:03; [7]
  Kd: ≥ 20 µM
HLA-A*02:12; [7]
  Kd: ≥ 20 µM

## VVPLYDTPL
HLA-B*44:02; [8]
  Kd: ≥ 20 µM
HLA-A*11:01 [1]; [8]
  Kd: ≥ 20 µM
HLA-A*02:01 [2]; [8]
  Kd: ≥ 20 µM
HLA-B*08:01 [3]; [8]
  Kd: ≥ 20 µM
HLA-B*07:02; [9]
  Kd: 8.95 µM
HLA-A*31:01; [8]
  Kd: ≥ 20 µM
HLA-A*03:01; [8]
  Kd: ≥ 20 µM
HLA-A*26:01; [8]
  Kd: ≥ 20 µM
HLA-B*58:01; [8]
  Kd: ≥ 20 µM
HLA-B*35:01; [9]
  Kd: 0.315 µM
HLA-B*27:05; [8]
  Kd: ≥ 20 µM
HLA-A*24:03; [8]
  Kd: ≥ 20 µM
HLA-A*01:01; [8]
  Kd: ≥ 20 µM
HLA-B*15:01; [9]
  Kd: 1 µM
HLA-B*40:01; [8]
  Kd: ≥ 20 µM

## HILQKTERG
HLA-A*02:01 [4]
  IC50: ≥ 99.6 µM
HLA-B*08:01 [5]
  IC50: ≥ 365 µM

## RYVGLYLPF
HLA-C*15:02
  Kd: ≥ 20 µM
HLA-C*14:02
  Kd: ≤ 0.001 µM
HLA-A*24:03; source organism: Mycobacterium tuberculosis
  Kd: 0.0002 µM

## KLDSGAFTV
HLA-C*03:03; source organism: Mycobacterium tuberculosis str. Haarlem
  Kd: ≥ 20 µM

## EKDSNHNVL
HLA-A*68:02; [10]
  Kd: ≥ 20 µM
HLA-B*51:01; [10]
  Kd: ≥ 20 µM
HLA-B*46:01; [10]
  Kd: ≥ 20 µM
HLA-A*02:16
  Kd: ≥ 20 µM
HLA-A*02:01 [2]; [10]
  Kd: ≥ 20 µM
HLA-A*29:02
  Kd: ≥ 20 µM
HLA-A*02:03
  Kd: ≥ 20 µM
HLA-A*69:01; [10]
  Kd: ≥ 20 µM
HLA-A*23:01; [10]
  Kd: ≥ 20 µM
HLA-B*15:17
  Kd: ≥ 20 µM
HLA-A*02:19; [10]
  Kd: ≥ 20 µM
HLA-B*18:01; [10]
  Kd: ≥ 20 µM
HLA-A*03:01; [10]
  Kd: ≥ 20 µM
HLA-A*26:01; [10]
  Kd: ≥ 20 µM
HLA-B*57:01; [10]
  Kd: ≥ 20 µM
HLA-A*02:11
  Kd: ≥ 20 µM
HLA-B*27:03; [10]
  Kd: ≥ 20 µM
HLA-A*02:12; [10]
  Kd: ≥ 20 µM
HLA-A*24:03; [10]
  Kd: ≥ 20 µM
HLA-B*15:01; [10]
  Kd: ≥ 20 µM

## DTDISQLHH
HLA-B*44:02; [11]
  Kd: ≥ 20 µM
HLA-A*11:01 [1]; [11]
  Kd: ≥ 20 µM
HLA-A*02:01 [2]; [11]
  Kd: ≥ 20 µM
HLA-A*69:01; [11]
  Kd: ≥ 20 µM
HLA-B*08:01 [3]; [11]
  Kd: ≥ 20 µM
HLA-B*07:02; [11]
  Kd: ≥ 20 µM
HLA-A*31:01; [11]
  Kd: ≥ 20 µM
HLA-A*03:01; [11]
  Kd: ≥ 20 µM
HLA-A*26:01; [11]
  Kd: ≥ 20 µM
HLA-B*58:01; [11]
  Kd: 2.68 µM
HLA-B*35:01; [11]
  Kd: 0.542 µM
HLA-B*27:05; [11]
  Kd: ≥ 20 µM
HLA-A*24:03; [11]
  Kd: ≥ 20 µM
HLA-A*01:01; [11]
  Kd: 0.358 µM
HLA-B*15:01; [11]
  Kd: ≥ 20 µM
HLA-B*40:01; [11]
  Kd: ≥ 20 µM

## YFRNSGMTY
HLA-B*44:02; [11]
  Kd: ≥ 20 µM
HLA-A*11:01 [1]; [11]
  Kd: ≥ 20 µM
HLA-A*02:01 [2]; [11]
  Kd: ≥ 20 µM
HLA-A*69:01; [11]
  Kd: ≥ 20 µM
HLA-B*08:01 [3]; [11]
  Kd: ≥ 20 µM
HLA-B*07:02; [11]
  Kd: ≥ 20 µM
HLA-A*31:01; [11]
  Kd: ≥ 20 µM
HLA-A*03:01; [11]
  Kd: ≥ 20 µM
HLA-A*26:01; [11]
  Kd: ≥ 20 µM
HLA-B*58:01; [11]
  Kd: ≥ 20 µM
HLA-B*35:01; [11]
  Kd: 0.11 µM
HLA-B*27:05; [11]
  Kd: ≥ 20 µM
HLA-A*01:01; [11]
  Kd: 1.46 µM
HLA-B*15:01; [11]
  Kd: 0.0853 µM
HLA-B*40:01; [11]
  Kd: ≥ 20 µM

## PTKCGENLY
HLA-B*44:02; [12]
  Kd: ≥ 20 µM
HLA-A*11:01 [1]; [12]
  Kd: ≥ 20 µM
HLA-A*02:01 [2]; [12]
  Kd: ≥ 20 µM
HLA-A*69:01; [12]
  Kd: 12.9 µM
HLA-B*08:01 [3]; [12]
  Kd: ≥ 20 µM
HLA-B*07:02; [12]
  Kd: ≥ 20 µM
HLA-A*31:01; [12]
  Kd: ≥ 20 µM
HLA-A*03:01; [12]
  Kd: ≥ 20 µM
HLA-A*26:01; [12]
  Kd: ≥ 20 µM
HLA-B*58:01; [12]
  Kd: ≥ 20 µM
HLA-B*35:01; [12]
  Kd: 5.2 µM
HLA-B*27:05; [12]
  Kd: ≥ 20 µM
HLA-A*24:03; [12]
  Kd: ≥ 20 µM
HLA-A*01:01; [12]
  Kd: 7.76 µM
HLA-B*15:01; [12]
  Kd: 2.36 µM
HLA-B*40:01; [12]
  Kd: ≥ 20 µM

## QYEKDPDEL
HLA-A*23:01; source organism: Amur virus
  Kd: 11.5 µM
HLA-A*24:02
  Kd: 4.65 µM
HLA-A*24:03; source organism: Amur virus
  Kd: 13 µM

## TMPELAWAV
HLA-B*44:02; [13]
  Kd: ≥ 20 µM
HLA-A*11:01 [1]; [13]
  Kd: ≥ 20 µM
HLA-A*02:01 [2]; [13]
  Kd: 0.0158 µM
HLA-A*69:01; [13]
  Kd: 0.0078 µM
HLA-B*08:01 [3]; [13]
  Kd: 15 µM
HLA-B*07:02; [13]
  Kd: ≥ 20 µM
HLA-A*31:01; [13]
  Kd: ≥ 20 µM
HLA-A*03:01; [13]
  Kd: ≥ 20 µM
HLA-A*26:01; [13]
  Kd: ≥ 20 µM
HLA-B*58:01; [13]
  Kd: ≥ 20 µM
HLA-B*35:01; [13]
  Kd: 0.42 µM
HLA-B*27:05; [13]
  Kd: ≥ 20 µM
HLA-A*01:01; [13]
  Kd: ≥ 20 µM
HLA-B*15:01; [13]
  Kd: ≥ 20 µM
HLA-B*40:01; [13]
  Kd: ≥ 20 µM

## MAVGVVLAL
HLA-C*03:03; source organism: Mycobacterium tuberculosis variant bovis BCG str. Pasteur 1173P2
  Kd: 0.024 µM

## YHMMKDEPV
HLA-A*02:01 [4]
  IC50: 42.3 µM
HLA-B*08:01 [5]
  IC50: ≥ 178 µM

## EVKKRDGVK
HLA-A*11:01 [6]
  IC50: 66.4 µM
HLA-B*08:01 [5]
  IC50: ≥ 211 µM

— the Immune Epitope Database (IEDB)
